The text below walks through data of publication PMC4961411.

Several values for one entry are separate records, joined by “and”; a condition that tells them apart may be missing. Equal values may be shown once.

Experiment [1] has as its target 6xHis-YlfA 128–425 (Legionella pneumophila). Description: SDS-PAGE and immunoblot of gel filtration peak fractions, not boiled. (Immunoblotting shows a protein as a band on a membrane.)
The target is the same in experiment [2]. The experiment in a line: SDS-PAGE and immunoblot of gel filtration peak fractions, boiled.
The target in experiment [3] is 6xHis-YlfB 131–405 (Legionella pneumophila). The experiment in a line: SDS-PAGE and immunoblot of gel filtration peak fractions, not boiled.
Experiment [4] has the same target. Description: SDS-PAGE and immunoblot of gel filtration peak fractions, boiled.

For 6xHis-YlfA 128–425 (domain or fragment), the stoichiometry N (as a rule, the number of molecules, sites or subunits per partner or assembly) in experiment [1] is 2 and 3; in experiment [2], 2.
Turning to 6xHis-YlfB 131–405 (domain or fragment), the stoichiometry N in experiment [3] is 2 and 3; in experiment [4] it was 2.
